Laboratory results from patent publication US20040048790A1.

Legend:
HLA-A*0301 (human) [1] = assay: competition with 125I-labelled probe peptide for purified HLA-A*0301
HLA-A*2401 (human) = assay: competition vs 125I-labelled probe peptide, purified HLA, gel filtration; settings: scale: ratio to standard peptide
HLA-A*0206 (human) = assay: 125I-probe peptide inhibition, purified HLA
HLA-A*6801 (human) = assay: 125I-probe peptide inhibition, purified HLA
HLA-A*0201 (human) = assay: 125I-probe peptide inhibition, purified HLA
HLA-A*0301 (human) [2] = assay: 125I-probe peptide inhibition, purified HLA

| Substance | relative binding ratio (HLA-A*2401 (human)) | further results |
| --- | --- | --- |
| p53 peptide, position 311, 10 amino acids |  | relative binding ratio (HLA-A*0301 (human) [1]): 0.0035 |
| p53 peptide, position 102, 8 amino acids | 0.11 |  |
| p53 peptide, position 106, 8 amino acids | 0.028 |  |
| p53 peptide, position 340, 9 amino acids | 0.0001 |  |
| p53 peptide, position 18, 9 amino acids | 0.001 |  |
| p53 peptide, position 43, 11 amino acids | 0.0023 |  |
| p53 peptide, position 337, 8 amino acids | -0.0004 |  |
| p53 peptide, position 117, 10 amino acids | 0.0001 |  |
| p53 peptide, position 125, 10 amino acids | 5.1 |  |
| p53 peptide, position 22, 11 amino acids | -0.0003 |  |
| p53.65 (10-mer) (peptide) |  | IC50 (HLA-A*0206 (human)): 841 nM |
| p53 peptide, position 18, 8 amino acids | 0.0016 |  |
| p53.273 (8-mer) (peptide) |  | IC50 (HLA-A*6801 (human)): 571 nM |
| p53.129 (9-mer) (peptide) |  | IC50 (HLA-A*0201 (human)): 735 nM |
| p53 peptide, position 106, 9 amino acids | 0.02 |  |
| p53 peptide, position 102, 10 amino acids | 0.12 |  |
| p53 peptide, position 204, 9 amino acids | 0.001 |  |
| p53.240 (9-mer …) (peptide) |  | IC50 (HLA-A*0301 (human) [2]): 550 nM |
